Assay: label from the status in PepcDB records

Sequence | protein production
MKGRLLQRLRQLSISNSLRGAFLTGALLTLIVSMVSLYSWHEQSSQVRYSLDEYFPRIHSAFLIEGNLNLAVDQLNEFLLAPNTTVRLQLRTQIIQHLDKIERLSQGLQLAERRQLAVILQDSRTLLAELDNALYNMFLVREKVSELSARLTGSSDDFTTELNSLVQDFTWQQGTLLDQIEANQGDAAQYLQRSREVQNEQQQVYTLAEIENQIVDDLRDRLNELKSGNNDGMLVETHIRYLENLKKTADENIRALDDWPSTITLRQTIDELLEIGMVKNKMPDTMRDYVAAQKALLDASRAREATLGRFRTLLEAQLGSSHQQMQTFNQRLEQIVRVSGGLILVATLLALLLAWGLNHYFIRSRLVKRFTALNQAVVQIGLGRTDSTIPVYGRDELGRIARLLRHTLGQLNMQRRQLEQEVAERKEIEADLRAMQDELIQTAKLAVVGQTMTTLAHEINQPLNALSMYLFTAGRAIEQGQSGQARNTLRKAEGLINRIDAIIRSLRQFYRRAELETPLYPVDARQTFVAAWELLAMRHQSRQGALSLPTDTVWVSGDEVRIQQVLVNVLANALDACSHDAVIAVTWQTQGEALEVYIADNGPGWPVALLPSLLKPFTTSKAVGLGIGLSISVSLMAQMKGDLRLASTLTRNACVVLQFSVTDVDDVE | failed
MKGYGEMAKNNPTRITAEPGKQEIIITREFDAPRELVFKAFTDPDLYTQWIGPRGFTTALKIFEPKNGGSWQYIQKDPEGNEYAFHGVNHDVTEPERIISTFEFEGLPEKGHVILDTARFEALPGDRTKLTSHSVFQTIEDRDGMLQSGMEEGINDSYERLDELLEKMKKLEHHHHHH | not failed
MKHAFDRFVQYLQKNYFSYWIVLGIDTFIALICTWVSFIGIHYITETSKEITSLFHILAISVISSILGSFLFHTYRNTIRFSQLKELWRLAGSALIKAVCIAMAIWLFLPQTGLHNSQKIVFVLFDGMLTFIAMVGFRIQLILVYELLLNMLNKKNMHILIYGIDDKSVALKVRLMNSSHYKVVGFCIYGTGDSIRRVADLPVYSFKDEECFNKLIHKKCIGGILFARYENTREEEDRLLQYCKRSGLKTLIAPSISEADENGSFHQWVRPIKIEDLLGRSEIHINMEEVMTEFCGKVVLVTGAAGSIGSELCRQLAQMNIKKLIMFDSAESPLHNVRLEFEKNYPDLDFVPVIGDVRVKERLRMVFETYQPQIIFHAAAYKHVPLMEENPCEAVLVNVVGSRQVADMAVEYGAEKMIMVSTDKAVNPTNVMGCSKRLAEIYVQSLGCAIREGKVKGHTKFITTRFGNVLGSNGSVIPRFKEQIENGGPVTVTHPDIIRFFMTIPEACRLVMEAATMGEGNEIFVFEMGKAVKIVDLATRMIELAGYRPGEDIEIEFTGLRPGEKLYEEVLSDKENTIPTENKKIMIAKVRHYEYTDILDTYTEFEKLSRSVQIMDTVKLMKRVVPEFKSKNSPRFEVLDR | failed
MKHASHKATTVSRQKFSLAKALFASGKGSHSVRAVRAVQSAGSDAVVLGLDPAIAEKINEIAPQTRRSIREAARAAERRSHILASASLAALVGTAAGALAFSNNEDATNSFVADPATTTTQIKRISDVTAASRSEARTDLSSSSVTAQSTNEGGWGLSNSDSTLDAKLMNRNNANNPVVSALVDADGDAVPAGFNPNHAVGTNSNNYPWGQCTWYAYQRRAELGLPSSGNFGNGGAWAASASALGYWVDNTPRHVGDAVVFAPGQADADGAYGHVAVLEKINADGSIEISESNAKGLGVISTRTFSAAEAGKFQYVHY | failed
MKHDKKNSKIIPFPNVKERLVHKGMGALKEKNYHEALRLFSEAKRYNDEESDIYLGMAICLLEIGELEEAKGICEKMLKEGHGHYFTVLQVYMTILIQLRQYEKVKETIEAVLEENKLPPESAEQFYKLLDFSRKMTEDPGPEDITEDLPETEEVDQERLLNDTEEQVKLLHGLKDRNLTSYIGLLKTILQNPSAHPVVKTMILQLLAESDHEKPTLVAKFGDSMTINPTETVKPDDMPILKHVLSVLDDTLGNENPTLYQAVEELWRRHIYVLYPFQPKYSNRELWAAALHKVGYEMHGIDIDKEELHILYEFNDRQLDEACALIKDIEEISYL | failed
MKHIFRFKNYFFHSKNNQLKRLLLVAFLLTGLWLTPQQGRVWGQEQPFVVKKIDLSQYGAAASIAQDPESKQLAIGFYNCNLIFLDANLNQDQKNNLFLKNCKRFFRARYGEFGSIPFLISSIYTGSSVLHNSQENFDIPLHKAAVTDSLILQDYLLSSSDDGSVTISRLISLSPPEVNTFKLYQSIGVARNLAFTHTSNPEVGKVAVSYDTGEIAIFNIDHDTARNPVEPSTFKTINSRINTFKFTPDGAKLLIGYFTGELVELDLATGAHKTLAKVNSWLNALDINSENLVAIADDQGFVKIISLTTGKIVEEHKISTTGINAVIFTDDQTVVAADATGMIYQGKLAGSN | failed
MKHKHGWASVVCCFVLFIVVCLSLTMHVQGAFRAAGHPEIGLLFFTLPGAVASFCSHRREVIRPLIGAMLAAPFCLVLMRVVFMPTRSFWQELAWLFSAVFWCALGALCYLFISSLFSHRRKKRR | failed
MKHLVTTALAYTNGPLHLGHARSTYIPADIYTRYLRLKGEEVIHVGGTDNHGVPITLTAEREGVKPIDIVDRYHNAIKADLDSLNVSFDTFGRTHSDIHIETAQEFYSKLKENGYIYEKEIEQFYCEKCDMYLADRYVEGICPFCEGEARGDHCEVCGRHLEPTELVNPYCIHCNSKPEIKRTTHYFFKLSAMQDVLKEYIENSPEMPEHVKNMALRWIEELHDWDVSRNIKWGVPIPGCDDQVMYVWIEAPIGYVSFTKQLGDLWKDYWLENTGDSKISHFIGKDITVHHAVFWPGILKGIGGYKMPNAVVSGGYLTLENKKMSTSKNWVVWVKDFIENFSSDYLRYFFMINAPLNRDTDFSWDDFQKRINTELIDIIGNFTHRTLVFTERKFGSTPVVDLNQLKDEDKKLISKCEDTLNRVDSLIREYNFKDALMEIIHLAKEGNGYFQGMAPWAIKDEERLKEVMYTCSVALKYIVYLLSSFMPEKTALLLEYMNEELDLEVRGNPLKKPKVIFTKVSDEDISRMKENLMKATKKAETKSDEKSKKVKSGEKMDIIDIDYFGNIDLRVGQILEVEEVPRSKKLYKITADLGDEKRQIVSGLKGAYEAEELVGKKVIIICNLKPAKLCGVESQGMLLAAEDDSIVSLLALDRDLPVGSKIH | failed
MKHSGFQAKRLIQLALPVLIAQVTQTMMGFIDTVMAGRVSAVDMAAVAVGTSLWLPAILFVQGLLMAFTPLFAHHNGANNQKAIQPLAFQGAYLALIGGLGVMVFLASAPLVLSHMNLEPQLYNLTIGYIDGILWGAPAFVLYQVLRGCSEGISYTLPTMVIGFVGLAVNIPANYIFIYGHFGIPAMGGAGCGIATALVFWAMLIAMAIYMQFHKKFAALAPFSQFHRPDFATMKKMTKLGLPIAMALFFEVSLFAIIALLLAPLGATVVASHQIALNFSAIVFMLPLSIGIAVSIRIGYYLGRDRADISAVVAKVGLLLALSLALSTAILTVLFRFQIAELYNSDPEVVVLAGSLMLMAALYQLSDSVQVVAAGALRGYKDTRSAFYITLFSYWGIGMSLGYTLAYTDFIVPAMGAHGFWTGLIAGLTSAALLFFIRLRYIQKHRVHLSLIEGDSVHH | failed
MKHYSHGIDGLRSGLSPSAKPFAIGSSSSPAFSLKSEHEDSIWGDYTLDLSFLSSDDQRSGLDDDDSLSNLSRDVETNKEGLVLEEKIASSGKVLVNPNPSFSKLPEVLMKSSDVVGDAKLGLSCVSEKSSTESDLDESEEDSPCWKGMLSHKSLASGTKSMTSRRSTDDLSGFRKLNPLAPQFIPSSSKKKLETDGEKCEETSSSSLKKSLSSTFPSSSGEFDLTDPPLEDGRNDAAEKTSILTHNADEILGFVTSDSVSKTVSMLDSRNEFQPSKRLDPLAPVFVPSSAKLGPSVHEKLGDFVVNAYSTSALASSHVKSLDKGKVVTSSGEVGHSFKSQYGGHDFGSTSSYGPWIESEVGITEYAKLGSSNKSQGQRRLNPLARQFSLADAKQKPYGYGKNQAADDLSLVVNTSGLYIPARYREDHNVVDADLAQSSVNVERFLPNMSHGGSSLITPKADSNFGSTKWIAVEPNPTFSVKGNRDFKHHLPFHVVETAASSSTSDMKALPGPSPKMDVKKLLTTMHGLSELLTLAHGSESSDSPNAEELDLINSTVQNLNLYIQNNSQEHAGNQSVAQYNSYDLKLLPNKSKLSIRDHQFPTANNMTVDLDVKRKDKYSVVSRETVPGSRSYQYGATEDNGFGQVVPTNGYQQHQGVEQINQNALFYKSLWLKAEADRCLMVYETSLSNPYP | failed
MKIACVVLTYNRLSLLKRCIDSIRNQTYQEFDIYVIDNASTDGTAHWLSLQNDLTVISIHENKGPANGFYTCLQVPYDDGYDWIWMMDDDGVADKGQLEELLNKTVKNNLYFTNALVCNIDNPEKIAFGAKKTIDTQREELIKGNINPFNGTFIHRRVIEKNGNIMREMYMYGCETEYQLRAIKNGFQVATVTSAIHYHPSPKVSICHLIPYIKYCSIIDYPIDTLFYIRNKAYINYTYLGFKRSLFMITSYSLYYLFRLKIRKVLLFWKYYREGCKGVVGNKKQLEHHHHHH | not failed
MKIAVDAMGGDNAPQAIVEGVMLAKQDFPDIEFQLYGKEAEIKKYITDEKNITIIHTDEKIASDDEPVKAIRRKKTASMVLAAQAVKNGEADAIFSAGNTGALLAAGLFIVGRIKNVERPGLMSTLPVMGEPDKGFDMLDLGANADNKPEHLVQYAVLGSFYAEKVRNVQNPRVGLLNNGTEETKGSELTKKAFELLAADETINFVGNVEARELLNGVADVVVTDGFTGNAVLKSIEGTAMNMMSLLKTAILSEGVKGKMGALLLKNALHGMKDEMDYSKHGGAVLFGLKAPVIKTHGATGPDAVRYTIRQIHTMLETQVVPQLVEYYEGKAE | not failed
MKIAVVDGQGGGIGKAVVEKLRKELPEDTQIIALGTNALATTLMLKAGANEGASGENAIVFNAPKVDIIVGPIGIISANSMMGELTPLMAAAIAESPARKILIPLNRCNIEIAGVKNEPLPYYIEHAVEMVKKYVEGHIALEHHHHHH | not failed
MKIFAVVVTYNRLALLKKVIDLLKRQTRQLDSIVIVNNGSTDGTKEWLEQEKNITLINQSNSGGAGGFETGVKYAYENEADWIWMMDDDVFPNIDCLEKLLGWTSISQCIQPRRYYSDDVEVNFEQWLDPITYSKFGYWQEKSFNNGKKFCAINVGCFEGMFVSKSIVNKIGFPDKRFFIAEDDTIYGFAASFYTNVILVSDAIMVRARRSSDRSVSPMYTYYACRNFHLVYESLNLLLDKKNRFLYIKYIYQFVHQIYLSIFLYDNKMKHLISVFRGFYDCFRKKNGATYLEHHHHHH | failed
MKIFLDSAITTDIQDRLATEIIDGVTTNPTLIKKSNEDPDVVYKELYDMRVKDISIEVRGDTAQELAANGILYGRKYGEVATIKLPCTVEGIKACKKLSILGHKTNMTLVFSVSQAILCAKAGATYVSPFVGRLDQIGEDGIQLIRDISRVYCVSGVKTQILAASIRSPKQAEDAYLAGADICTLPVKVFDQMFKHTLTDDGLKQFAIDFGINF | failed
MKIGDKVRFLSEVGGGIVTGFKGKDFVLVEDADGFDIPMPIRECVVIEADDYNIKRKPAATAPKQEEPAKPAKPEMPVIQRQPEVRGGDTLNVFLAYVPEDAKAMMTTPFEAYLVNDSNYYLYYTYLSAEGKAWNNRSHGLVEPNTKLLLEEFTKDVLNEMERVAVQLIAFKDGKPAAIKPAVSVELRIDTVKFYKLHTFSASDFFEEPALIYDIVKDDVPAKQVYVSAEEIQSALLQKKFVDKPKSQPIMKPNHGQSGKNGIIEVDLHIDSLLDDTHGMSNSEILNYQLDKFREVIEANKEKREQKVVFIHGKGDGVLRKAIIDELKRKHSNYRYQDASFQEYGFGATMVTIK | not failed

From a protein production outcome set (Wang et al. 2014)
